From patent publication US8835136B2, “Engineered amine dehydrogenases and methods of use thereof” (Georgia Tech Research Corporation, priority 2012, dated 2014)
Where “and” joins values, the source holds several entries; their conditions need not be identical. Identical values can stand only once.

Tests used:
[1] = Reductive amination activity; assay type: biochemical
[2] = Kinetic parameter for NADH (PheDH-AmDH); assay type: biochemical
Protocol: Kinetic parameters, kcat and KM, were determined for the enzyme and each of the reductive amination substrates; respectively. […] The kcat value for this AmDH enzyme with all three substrates saturated in aqueous NH4Cl/NH4OH buffer at pH 9.6 was 6.85 s^−1 at 25° C. This represents a near 15-fold enhancement above the maximum observed kcat of 0.46 s^−1 of the previously developed LeuDH-AmDH.

[3] = Thermostability by circular dichroism (PheDH); assay type: physicochemical
Text: The thermostability of the AmDH was compared to its wild-type scaffold using two different methods, circular dichroism (CD) and a temperature versus activity profile. The mutation of the enzyme scaffold has affected the thermostability, in addition to the enzyme's function. […] Beyond 30 degrees, there is an earlier onset in the pronounced loss of structure of the double variant compared to the wild type; however, the slope folded fraction over temperature stays constant, indicative of constant enthalpy of melting. The K77S N276L mutations have slightly destabilized the protein structure, resulting in a melting point of 59.9° C., 4.4° C. less than the wild type. The specific cause for this change is difficult to determine. It likely to be either disruption of the ‘ideal’ packing of the wild-type enzyme's hydrophobic core or a net decrease in hydrophobicity by the amino acid substitutions which leads to a lower folding entropy.

[4] = Conversion with GDH cofactor recycle system (PheDH-AmDH); assay type: biochemical; details: 100 mL, 20 mM PFPA, 48 hours
Protocol: The GDH consumes glucose present in solution to cheaply and efficiently regenerate the NADH cofactor, allowing conversion to continue beyond stoichiometric depletion of NADH. In a 100 mL reaction volume containing 20 mM PFPA, conversion was allowed to continue for 48 hours followed by extraction and ^1H-NMR to confirm the product formation and conversion levels. […] Under the same reaction conditions, 17.46 mg of the AmDH enhanced the overall conversion to 93.8% and 73.9% yield. Evidence of chirality was indicated by different NMR signals of the C3 hydrogens (δ 2.67, 2.49) which are adjacent to the C2 stereocenter (FIG. 18).

[5] = Temperature versus activity profile (PheDH-AmDH); assay type: biochemical
Protocol: The thermostability of the double variant K77S N276L was additionally determined by a temperature versus activity plot, showing the results of amination activity measured in 5 M NH4Cl/NH4OH buffer pH 9.6, 200 μM NADH, 20 mM PFPA for 2 minutes (FIG. 17). […] The near linear increase corresponds to a low activation energy of 241 J mol^−1. The maximum specific activity was 11.6 U mg^−1 at a temperature of 50° C. Above 50° C., the enzyme began to rapidly lose activity as a result of denaturation. This deactivation correlated well with the circular dichroism data, where a dramatic loss of secondary structure was observed from 50° C. to 70° C.

[6] = Reductive amination, spectrophotometric assay at 340 nm; assay type: biochemical; details: 500 mM NH4Cl/NH4OH pH 9.6, 200 μM NADH, 20 mM, 25° C.
Protocol: (§1) Activity of purified proteins was measured using a spectrophotometric assay at 340 nm, corresponding to the cofactor nicotinamide adenine dinucleotide (NADH, ε340=6220 M^−1 cm^−1) (Dawson, et al., Clarendon Press, (1989). For reductive amination, reactions took place in 500 mM NH4Cl/NH4OH at pH 9.6, with 200 μM NADH and 20 mM of the ketone substrate, unless otherwise specified. For oxidative deamination, reactions took place in 0.1 M NaHCO3/Na2CO3 buffer at pH 10.0, with 1 mM NAD+ with 10 mM of the amine substrate of interest. All reactions were performed at 25° C. unless otherwise specified. Enzyme was added in 10 μL aliquots in dilute concentrations. Enzyme concentrations varied upon activity levels with the substrate present, but were dilute enough to ensure linear conversion kinetics over the analytical time period (10 min to 30 min). Specific activities were then calculated from the stoichiometric conversion of cofactor as determine by the change in absorbance at 340 nm over time.

[7] = Enantioselectivity of PFPA amination, chiral gas chromatography; assay type: biochemical; details: chiral GC after TFAA derivatization
Text: Equally important to conversion is maintaining the selectivity of the enzyme after altering the substrate specificity. Preservation of the wild type (S)-selectivity towards phenylalanine will result in the asymmetric production of (R)-1-(4-fluorophenyl)-propyl-2-amine due to a change in Cahn-Ingold-Prelaw priority. The product amine resulting from enzymatic conversion with the co-factor recycle was isolated and derivatized using trifluoroacetic anhydride for analysis via chiral gas chromatography. An enantiomeric excess of >99.8% toward (R)-1-(4-fluorophenyl)-propyl-2-amine was confirmed, however, further resolution of the selectivity was limited by the separation capability of the chiral column. Throughout all experiments, the (S)-enantiomer remained below the detection limits. Even as the enzyme approaches levels of conversion beyond 90%, the high enantioselectivity toward (R)-1-(4-fluorophenyl)-propyl-2-amine is maintained. This renders the AmDH/GDH system a viable method for the production of chiral amines.

[8] = Reductive amination, spectrophotometric assay at 340 nm; assay type: biochemical; details: 500 mM NH4Cl/NH4OH pH 9.6, 200 μM NADH, 20 mM, 25° C.; remark: listed apart in the source
Protocol: as §1
(§2) The activity of the purified protein was evaluated using a spectrophotometric assay at 340 nm as described in Section 3.2.3 at 25° C. in various concentrations of NH4Cl/NH4OH buffer pH 9.6.

[9] = Reductive amination of PFPA, spectrophotometric assay at 340 nm; assay type: biochemical
Protocol: as §1, §2
Active variants were identified by the rate of change in absorbance at 340 nm, corresponding to the fastest activity. […] Some variants consumed the cofactor too quickly (<5 min) to be observed over multiple time points, and gave low absorbance in the initial time point. These variants were included for further characterization. The successful variants were sequenced (MWG Operon), and each unique sequence was expressed in pET28a/BL21 for histag purification and determination of kcat and KM values with PFPA.

B1: K77S N276L: PheDH-AmDH double variant, SEQ ID NO:2; PheDH library 1 hit 1H4 (protein)
chain: SLVEKTSIIKDFTLFEKMSEHEQVVFCNDPATGLRAIIAIHDTTLGPALGGCRMQPYNSVEEALEDALRLSKGMTYSCAASDVDFGGGKAVIIGDPQKDKSPELFRAFGQFVDSLGGRFYTGTDMGTNMEDFIHAMKETNCIVGVPEAYGGGGDSSIPTAMGVLYGIKATNKMLFGKDDLGGVTYAIQGLGKVGYKVAEGLLEEGAHLFVTDINEQTLEAIQEKAKTTSGSVTVVASDEIYSQEADVFVPCAFGGVVNDETMKQFKVKAIAGSANLQLLTEDHGRHLADKGILYAPDYIVNSGGLIQVADELYEVNKERVLAKTKHIYDAILEVYQQAELDQITTMEAANRMCEQRMAARGRRNSFFTSSVKPKWDIRN
- activity level, 1,3 Phenylbutanedione [1]: 30 mU/mg
- Km [2]: 0.0239 mM
- decrease of melting point versus the wild type [3]: 4.4 °C
- melting point ([3]; 100 μg mL-1, 50 mM sodium phosphate pH 8.0): 59.9 °C
- conversion of 4-fluorophenyl acetone ([4]; 7.48 mg AmDH): 89.4%
- overall conversion ([4]; 17.46 mg AmDH): 93.8%
- activation energy ([5]; 10-45° C.): 0.0576 kcal/mol
- maximum specific activity ([5]; at 50° C., 5 M NH4Cl/NH4OH pH 9.6, 200 μM NADH, 20 mM PFPA): 11.6 U mg^−1
- Activity, MIBK [6]: 77.0 ± 1.3 mU/mg
- Activity, cyclohexanone [6]: 27.5 ± 1.4 mU/mg
- Activity, ethylpyruvate [6]: 18.4 ± 5.9 mU/mg
- enantiomeric excess toward (R)-1-(4-fluorophenyl)-propyl-2-amine [7]: > 99.8%
- Activity, 1-Boc-piperidone [8]: 7.8 ± 1.1 mU/mg
- Activity, 2-hexanone [8]: 155.7 mU/mg and 155.7 ± 1.4 mU/mg
- Activity, 2-methylcyclohexanone [8]: 19.3 ± 1.1 mU/mg
- Activity, 3-hexanone [8]: 1.6 mU/mg and 1.6 ± 0.5 mU/mg
- Activity, 3-methyl-2-butanone [8]: 72.7 ± 1.4 mU/mg
- Activity, 3-methylcyclohexanone [8]: 41.1 ± 2.1 mU/mg
- Activity, 3-pentanone [8]: 1.3 ± 0.0 mU/mg
- Activity, Benzyloxyacetic acid [8]: 22.6 ± 0.7 mU/mg
- Activity, benzaldehyde [8]: 31.4 ± 8.7 mU/mg
- Activity, cyclopentanone [8]: 0.9 ± 0.5 mU/mg
- Activity, phenoxy-2-propanone [8]: 540.8 ± 6.9 mU/mg
- Activity, 2-hexanone ([8]; listed as K77S/N276L): 155.7 mU/mg
- Activity, 3-hexanone ([8]; listed as K77S/N276L): 1.6 mU/mg
- enhancement above maximum kcat of LeuDH-AmDH [9]: ~15 fold
- kcat, amination of PFPA ([9]; 500 mM NH4Cl/NH4OH pH 9.6, 200 μM NADH, apparent): 2.8 s⁻¹
- Km ([9]; 500 mM NH4Cl/NH4OH pH 9.6, 200 μM NADH, read-out: KM, amination of PFPA): 4.37 mM
- Km ([9]; 5 M NH4Cl/NH4OH pH 9.6, 200 μM NADH, read-out: KM value of PFPA): 7.75 mM
- kcat with all three substrates saturated ([9]; aqueous NH4Cl/NH4OH buffer pH 9.6, 25° C.): 6.85 s⁻¹
